This note sets out measurements from a protein production outcome set (Wang et al. 2014).

The nature of this data set: label from the status in PepcDB records.
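Further: failed if final PepcDB status was selected cloned or expressed and not failed if soluble or beyond.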

As to “MSVEKKVNDLLQKMTIEEKVYQLTSILIQDILENDKFSPQKAKEKIPHGIGQITRLAGASNLSPQEAAKTANEIQKFLIENTRLGIPAMIHEESCSGFMAKGATVFPQSIGVACTFDNEIVEELAKVIRTQMKAVGAHQALAPLIDVARDARWGRVEETFGEDPYLVANMAVSYVKGLQGDDIKKGIVATGKHFVGYAMSEGGMNWAPVHIPERELREVYLYPFEVAVKVAGLKSIMPAYHEIDGIPCHANRKLLTDIARNEWGFDGIYVSDYSGVRNLLDYHKSVKTYEEAAALSLWAGLDIELPKIECFTEEFIKALKEGKFDMTLVDAAVKRVLEMKFRLGLFDNPYIKTDGIVELFDNKEQRQLSRRVAQESMVLLKNDNFLPLSKDSKKIAVIGPNANSVRNLLGDYSYPAHIATLEMFFIKEDKGVGNEEEFVRNVINMKSIFEAIKDKVSSNTEVVYAKGCDVNSQDRSGFEEAKKAAADADAVILVVGDKAGLRLDCTSGESRDRASLRLPGVQEDLVKEIVSVNPNTVVVLVNGRPVALDWIMENVKAVLEAWFPGEEGANAVADVLFGDYNPGGKLAISFPRDVGQVPVYYGHKPSGGKSCWHGDYVEMSTKPLLPFGYGLSYTTFEYKNFAIEKEKIGMDESIKISVEIENTGKYEGDEIVQLYTRKEEYLVTRPVKELKGYKRVHLKPGEKKKVVFELYPDLFAFYDYDMNRVVTPGVVEVMIGASSEDIKFTGTFEIVGSKKDAKELKHYFSKVWCE”, the protein production result was “failed”.

As for “MSVGTSSAPGARQVPRPLAPRTSGDPADLGIDPDQLPDGLVVADEHGRVVCFNAAAVRITATPAAEALGQLLESALPLEDLEGRRWWQLTDPYGGLAIRVRQPERNLLLPGGREVLVTARYVRAERLGPVHRVVVTLRDTEARRRTERSHAELIATVAHELRSPLTSVKGFTATLLAKWERFTDDQKRLMLETVDADADRVTRLIAELLDISRIDSGRLEVRRQPVDIGAAVGRHIQAYVASGLEADRFLLRLAQPLPDLWADPDKVDQVLSNLLENAVRHGEGTVTIDVTPTASPREGEDTGTSVTVSDEGAGIPEESMNRVFTRFWRGSKRGGTGLGLYIVKGIVEAHGGTITVGRAPGGGAEFRFTLPVAAPAYLT”, the protein production result is “failed”.

For the sequence “MSVKAYLELIRVHNVVGSAVSAFMGYVIATTWKFTPLFFLPLLVVSLIAAGGYVINDVYDIEVDKINKPERPLPSGRIAVNIARRFSIVLFAVGLIISIPLGLIPFGFALITIVLLYEYARSLKKLGLVGNFIVALTSALSAYYGGLASGSLLGNFIIPTIYIFFFTLSREFVKGIEDIEGDKRNGVNTLAVKLGEKSTWIIAKIILGILIFTSPLPYFLGFNVIYLIGILALDVLLVYILILHNTIESATKARSLMKIYAIGTLIVFTLGSLRI”, the protein production entry is reported as “failed”.

With “MSVKMKKCSREDLQTLQQLSIETFNDTFKEQNSPENMKAYLESAFNTEQLEKELSNMSSQFFFIYFDHEIAGYVKVNIDDAQSEEMGAESLEIERIYIKNSFQKHGLGKHLLNKAIEIALERNKKNIWLGVWEKNENAIAFYKKMGFVQTGAHSFYMGDEEQTDLIMAKTLILEHHHHHH”, the protein production entry was “not failed”.

“MSVKVMKRLGTLLLLVCVLIILIPQSASAHAYVVKSNPTENETLKKAPSVVKIEFDEDIQVSRFNTLYVRDTSGKRVDLKDAHIDKKNKKLLEAGLKENLKNGLYSIQWKAISADGHPIQGVIPFRIGLAEAETDDVQVEEMGYVPQIDMIMERGILYTSFSLFIGVLFFNLIMYKGNATSVRSRSKNIIWISLFGILISLLFNLPLQAKINADVSWLEAFNPLLLKETLQLSVFGYVWITQMVLISTLIIVTYFAVKHEKFSSFKVWSIPILLFIGLLVMKAFNSHAYGLKFKDIAVVMDFLHLFAASLWVGGLSSIILLLRNEDNKWHMYWDMIKRFSPWATGAVIVILITGLFNSTFFIPTIHSLFDTKYGLVLLTKILLFIFMGILGIIHYVKGRMRAQQGLGATVKVEFIIGIIIFVIVAFMTNVQTPPMPPTGPFTESKQLDNGYEMTLNVSPNRVGQNIFHITLKDENGQPVTDMEQIILTTQSLDMNMGKGSFKVSAVSPGEYEAEGMYINMTGNWNIQVHGLTKSLDSFDTDYKFIVGGR”: the protein production result is reported as “failed”.

Turning to “MSVLAIIFLLNLKPTIYSIVGIFLIIILDVTVAVALYFLLRPVSKNISMLMSLFRIVYAAIFTTALYKIHDLTAFYSILDLGYIFFGIHLFLLGFLVYKSGYMPKWLGALIFIASTGYIIDPLLRFSGYAVEIGMYTFFGEVLFAFWLVIKGRKLSEVVSTP”, the protein production entry was “failed”.

With “MSVLQGFEEVNMTAPRGKLSMLVTKDVVRFNKATAIALGYPAYVKVLINDKTKQFAVKPCKQSDANAVKFSKPEGKQTASVNIKDVMVLDSVLKYFKLDEPQDGQVTFQSMQGTFYPEERVAMFSVADAKAGVMKKRGRKKSESEEA”, the protein production entry is “failed”.

As to “MSVNMDELRHQVMINQFVLAAGCAADQAKQLLQAAHWQFETALSTFFQETNIPNSHHHH”, the protein production entry is reported as “not failed”.

As for “MSVNTNEGSKNLWKDLPLELLSSVMTFLEIKDNVRASVVCKSWFEAAVSVRVIDKSPWLMYFPETKNTYDFYDPSNCKKYTMELPKSLVGFIVRYSKDGWLLMSQEDSSHFVLFNPFTMDVVALPFLHLFTYYQLVGFSSAPTSSECVVFTIKDYDPGHVTIRTWSPGQTMWTSMQVESQFLDVDHNNVVFSNGVFYCLNQRNHVAVFDPSLRTWNVLDVPPPRCPDDKSWNEGKFMVGYKGDILVIRTYENKDPLVFKLDLTRGIWEEKDTLGSLTIFVSRKSCESRTYVKDGMLRNSVYFPELCYNEKQSVVYSFDEGRYHLREHDLDWGKQLSSDNIWIEPPKNAFELV”, the protein production result is “failed”.

Regarding “MSVPTTMFRLTGRDYPPAKLSHASLIIIDAQKEYLSGPLKLSGMDEAVANIARLLDAARKSGRPIIHVRHLGTVGGRFDPQGPAGQFIPGLEPLEGEIVIEKRMPNAFKNTKLHETLQELGHLDLIVCGFMSHSSVSTTVRRAKDYGYRCTLVEDASATRDLAFKDGVIPAAQIHQCEMAVMADNFACVAPTASLI”, the protein production result was “not failed”.

Take “MSVQLKCDAVNCVYNRSHLCSAEEIEVQGGETTGGDATFCGTFSSKSLGNFVSSLGNMNYSGSLKQAVSAEPIMDPKVHCNAVNCTYNDQRYCHADQVEIRNEVSHTAEETECQTFYPKMSLEHHHHHH”: the protein production entry is listed as “failed”.

Consider “MSVQTIERLQDYLLPEWVSIFDIADFSGRMLRIRGDIRPALLRLASRLAELLNESPGPRPWYPHVASHMRRRVNPPPETWLALGPEKRGYKSYAHSGVFIGGRGLSVRFILKDEAIEERKNLGRWMSRSGPAFEQWKKKVGDLRDFGPVHDDPMADPPKVEWDPRVFGERLGSLKSASLDIGFRVTFDTSLAGIVKTIRTFDLLYAEAEKGS”, for which the protein production entry was “not failed”.

With “MSVSGQPVLRAAVVTLQGRREDNQDFAAIAEPSPRDAAARGFVAAVADGIGGARGGRVAAEVSVRSFMEAYYGLSETLGMQQLLDRCLGSANRWVHAMGRLDPELAHMGTTFSGLIFRGRRAYLVHVGDSRIYRLRGDEPELLTSDHTLSGPGLDHVLYRAVGLDPGLRIDYSVYPLEPHDRFLLCSDGLHGSLQQEQIREILQERATPETTAEALARLAFEQGSQDNITALVVDVIALPPAEKQSLRLAIESLPLLDLPEVGDEVDGFRLERLLSSGRYSALFLAADTLGQDKPVVVKFPHPRVASEREYYDAFVREAWIGARVKSPWVGEILEQTPGRQSRLYSVMPFYPGASLEHELARRPRIGLEAGIDLALKLCKAVHALHRQQIVHRDIKPDNVLLDPEGGLKLLDLGIARLPAWDEDQADPIPGTPSYMAPEMFQGERGSIATDVFALGVTLYRTFAGGAYPYGEVEPFSTPRFGSPRPLTAHRPDLPAWLDAVLARAIAADPAQRPADAVELAYELEAGLEKGGGRRPPRRPLPLYERNPLQFWKAVAALLLALLAMAGLRLSLSCRPPSEAASRNNPLIHDNGDSR”, the protein production entry is recorded as “failed”.

Regarding “MSVTTTETTGTAPALPRKTLGLAMIGLAVMMTLLHYAGLLPAWLHRLPEAIIPPFATWLDAIFNFVKDDLGLLALTRLLTDGLEVVLDATANLLFGKRRWPNIGPIPWSAIAAMTAVVGYYLGGWRMALLAGGTFVWTAMIGQWDIAMQTMSVLVVAAPLAFAIGLVLGISAWKSPSFDAVLRPVLAVLQTLPFFTYLLPAVIFFKVGPTAGAVATTVYAIPPMILMTTLGLQKVSPEVVEAGKMSGCTRWQMLRHVYIPAARTEILVGVNQVIMLCLAMVVLTAFIGMPGLGAKLLAMMGSFKIGRSFEIGVTIVLLAVTLDRMSKAWVVKLPEHFERGTPFWIRHKFLLMAIGAFVGFTLIAQVVPILSEVGRKQSWSQGKEIDTLIKGFLAIDAVQAITNSIRYVLNIWVLNPLRDFMLSIPTVAFVLFISAAALLVAGRREAVLAAAFFGLVALTGWWDRSVITLYSVLAAVSIALLLGVPIGVVAARKEKTANAVLLACDTAQTFPSFIYLIPAIMLFGITATSVVMSILIFSMVPLVRYTIEGLRNVPDEMTEAADMAGATRMQKLWNVQLPLALPTMAVGFNQAIMFAFFMVIIAAFIGTQDLGQELQRTLAGTDLGKNFVLGICVTLMALTFDMVIMKWADDKKARLGLN”, the protein production entry was “failed”.

Consider “MSVVSPDPAPVPHDPQRRALLRWLVGGGALAGGLGVSAVAQGYRFGVTHEQWNLVGLTRPVRLALLTDLHYGLYIGAGSVRRWVDATLAECPDLILLGGDLVDSHFDAAARPQQTAALLAELGRLRAPLGVYAVWGNHDYGSFGRSISQSPEASRADWAARRDALRAGLAGQGVTVLLNEGRSLRDDLWLGGVDDLRMGEADSVAALRGSGTRATVLLAHNPDVLLRLRSAPGLVLSGHTHGGQVRLPLLGALKVPADPRFTMGWVRGPQGIPAYVSRGLGMSGLPVRNLCEPEITLLTLLPPGALEHHHHHH”, for which the protein production entry is given as “failed”.

Regarding “MSWFTTQRHSGLCRDFGRRWRRVATISSAIALICAQPLFAVPAAKPNEDFFSIAKSIELLGDVYKNVAQNYVDPVNVSEFMYSGIDGMLGQLDPYTAFLDEEQSGELDEITSGQYAGIGVTLGIFSGDLFIISVIDGQPAAKAGLKVGDQIIAIDGVKVSKKSIDEVRSTIKGSPGTNIRLSIKRDGQGPLTVISLTRGEVRISSVPFFGLFGSSGYVQMNSFSEHSREELSAAIRKIRQEAAKNRVVLNGIVLDLRGNPGGLLTSAVEVAGLFVEKNSRIVSTRGRAADSEQVYVTKTEPQEPTLPLVVMIDGDSASASEIVSGAIQELDRGVILGENSFGKGLVQSIINLPYDHILKMTTAKYYTPSGRLIQKPIARDESRRKVVLSNGDADSTKVFYTRNRRKVYGGGGIRPDVVAKADSLSEYQHKIENSGLLFRYASRFHRKHPEFRLQQLSSEPLYDDFNRFLEKEHFSFRSGAQKTLDSLKTLVQKEAGADKALAGQLDALDKALAASTRRNISRDSLHITAALQREIMRHYDERAALKRAIEDDPVAAKAFALLGDQKRYRSLLKP”, the protein production entry is listed as “failed”.

On to “MSWKIIEKYRRILAQEEGNSPKRRGGKLTVCLVYPNRYGVAMSNLGFQAVHALLNAESDILCERAFLPDPDDLREYRRSGARLLSLESQEPLSSFDIIAFSVSFESDYLNIPVIFDLAGIPALAAERTGSHPLVMGGGAALFLNPEPVADFLDLIVVGEGEAILPTFLDHIRADGIGDRAMFLAGVAGLPGIYVPSLYATEYDGARLVSREAKDGAPEQVKRIWMAEPDGRATVSEILTPGTEFSDMYLVEVSRGCGRGCRFCAAGFIYHPYRQRSLDAVKAAVAEGLSHRRKIGLVGAAVSDFREIGELCRHILAEGGTVSVSSLRIDRLDEGMIEVLKASGHKTVALAPEGGSQRIRDLINKNLTEEQILAACDLLIGHDILNLKLYFIIGLPTETMDDLEEMALLVEKIRKRVIAAARKNKRLGEIILSVNPFVPKPFTPFQWCGMEDTPSLEKKLKYLQQTVGRLSNVRLIAESPKDAWLQALLSRGDRRLSGFLLRAAELGNWKRAAREFPVDTDFLVHRTIPLDEMLPWDVIASADAERLRREYLKATPPRLEHHHHHH”, for which the protein production entry is listed as “failed”.

With “MSWLLVIAAGFLEVVWASGLKHADSFVDWLMIFVLIAVSFIMLIRSYRNIPMASAYTVFVGIGTAGTYVTGIFMGETFSGGQIFFLIVLLGGIIGMKMFTKENNAQSGGDE”, the protein production result is “failed”.
